Tests used:
[1] = BS^3 chemical cross linking / SDS-PAGE dimerization assay; format: physicochemical; settings: for dimerization after BS^3 cross linking: Example 4, BS^3 up to 2500 μM, FIG. 8; for monomer/dimer bands after BS^3 cross linking: Example 11, BS^3 0-2500 μM, SDS-PAGE, FIG. 16A
Method: Then, Tris was added to a final concentration of 30 mM and the mixture was incubated for 15 min at room temperature. Samples were denaturized and loaded on 15% SDS-PAGE. The gels were stained with coomassie blue (InstantBlue, Expedeon, CA, USA) and visualized with MiniBis pro (DNR Bio-Imaging Systems, Jerusalem, Israel).
BS^3 crosslinking assay—Human (4 μg) and murine M-CSFWT (1 μg), M-CSFC31S (1 μg) and M-CSFC31S,M27R (2.5 μg) were incubated with different concentrations of BS^3 [bis(sulfosuccinimidyl)suberate] (ThermoFisher Scientific, MA, USA) cross linker (0, 25 μM, 100 μM, 250 μM, 500 μM, 1000 μM and 2500 μM) for 30 min at room temperature. Then, […] was added to a final concentration of 30 mM, and the mixture was incubated for 15 min at room temperature. Samples were denaturized with sample buffer, boiled, and loaded on 15% SDS-PAGE for protein separation. The gels were stained with InstantBlue staining (Expedeon, CA, USA) for 40 min, followed by two washing steps with double distilled water. The gels were visualized with MiniBis pro (DNR Bio-Imaging Systems, Jerusalem, Israel).
Experiments were conducted in order to verify that the purified variants are incapable of dimerizing. The purified variants were incubated with a cross linker reagent (BS^3 [bis(sulfosuccinimidyl)suberate]) to enhance and visualize non-covalent intermolecular interactions. Following incubation, the reactions were stopped and the samples were loaded in denaturized conditions on a protein gel.
To validate the structural and computational analysis and to verify that M-CSFC31S,M27R is indeed a monomer, several biophysical assays were conducted. First, purified murine and human M-CSFWT, M-CSFC31S and M-CSFC31S,M27R were crosslinked via lysine residues using different amounts of BS^3 reagent [bis(sulfosuccinimidyl)suberate], and the proteins sizes were evaluated using SDS-PAGE (FIG. 16A). Murine M-CSFWT served as positive control, since it has a lysine in the dimerization site (K68), which facilitates the intermolecular cross-linking of the two monomers in the dimer. […] The dimer band became more prominent at higher BS^3 concentrations. It is likely that the non-covalent dimerization allows other lysines in M-CSFC31S to come into close proximity and crosslink.

[2] = Dynamic light scattering (DLS); format: physicochemical; settings: 0.5 mg/ml; angle of 90°
Method: Dynamic light scattering (DLS)—The hydrodynamic radii of M-CSFWT, M-CSFC31S and M-CSFC31S,M27R were determined using DLS. The proteins, in a concentration of 0.5 mg/ml, were filtered to remove aggregates and contaminants. Light scattering was measured at an angle of 90° three times, in two different experiments, resulting in a total of six measurements. […] An analysis of the solution was conducted to verify that the most abundant specie was in the size range of 1-10 nm. The peak for this specie was compared for the three different proteins, and the hydrodynamic radius of each was determined as the maximum of the peak.
Next, the size of the M-CSF variants was evaluated in solution. M-CSFWT, M-CSFC31S and M-CSFC31S,M27R at concentrations of 0.5 mg/ml were subjected to dynamic light scattering (DLS) analysis at an angle of 90°. The peaks for the most abundant species in each sample were compared (FIG. 16B), and an estimated hydrodynamic radius was calculated from each peak. […] To confirm that the oligomeric state of M-CSFC31S,M27R is not concentration dependent, all M-CSF variants were subjected to SAXS measurements at concentrations of 3, 5 and 7 mg/ml. Of note is that the Rg values remained within a similar range for M-CSFWT and M-CSFC31S. There was a slight increase in the Rg value of M-CSFC31S,M27R at higher concentrations, presumably due to an increase in interparticle interactions. […] To illustrate the oligomeric states of these three proteins in solution, low-resolution structures were reconstructed from the SAXS data. Ab initio models were reconstructed from SAXS data using the computer program GASBOR and were averaged by the computer program DAMAVER. The crystal structure of the M-CSF dimer and the structure of the monomer were aligned with the obtained SAXS models (yellow, M-CSFWT; green, M-CSFC31S; cyan, M-CSFC31S,M27R) using PyMOL (http://www.pymol.org).

Molecule	dimerization after BS^3 cross linking [1]	monomer/dimer bands after BS^3 cross linking [1]	hydrodynamic radius [2]
M-CSFM: 158 amino acid M-CSF with cysteine at position 31 replaced by serine (SEQ ID NO: 2) (protein) EEVSEYCSHMIGSGHLQSLQRLIDSQMETSSQITFEFVDQEQLKDPVCYLKKAFLLVQDIMEDTMRFRDNTPNAIAIVQLQELSLRLKSCFTKDYEEHDKACVRTFYETPLQLLEKVKNVFNETKNLLDKDWNIFSKNCNNSFAECSSQGHERQSEGS	some dimerization interactions	mixture of monomer and dimer bands	3.56±0.24 nm
M-CSFWT: wild-type human M-CSF, disulfide-bond-linked homodimer which binds and activates c-FMS (protein) EEVSEYCSHMIGSGHLQSLQRLIDSQMETSCQITFEFVDQEQLKDPVCYLKKAFLLVQDIMEDTMRFRDNTPNAIAIVQLQELSLRLKSCFTKDYEEHDKACVRTFYETPLQLLEKVKNVFNETKNLLDKDWNIFSKNCNNSFAECSSQGHERQSEGS		only a faint band in a size that corresponds to a dimer	3.73±0.19 nm
M-CSFC31S,M27R: M-CSF double mutant containing both C31S and M27R; monomeric, monospecific c-FMS antagonist (protein) EEVSEYCSHMIGSGHLQSLQRLIDSQRETSSQITFEFVDQEQLKDPVCYLKKAFLLVQDIMEDTMRFRDNTPNAIAIVQLQELSLRLKSCFTKDYEEHDKACVRTFYETPLQLLEKVKNVFNETKNLLDKDWNIFSKNCNNSFAECSSQGHERQSEGS		did not produce any band corresponding to a dimer	2.94±0.10 nm
5.6: bispecific M-CSFRGD variant from sort five; M-CSFM loop replaced by XXXRGDXXX motif; binds c-FMS and αvβ3 integrin (protein, left off: small tags and cut ends) EEVSEYCSHMIGSGHLQSLQRLIDTYPRGDMCSITFEFVDQEQLKDPVCYLKKAFLLVQDIMEDTMRFRDNTPNAIAIVQLQELSLRLKSCFTKDYEEHDKACVRTFYETPLQLLEKVKNVFNETKNLLDKDWNIFSKNCNNSFAECSSQGHERQSEGS	did not show any dimerization		

Source: US11976099B2, “Compositions and methods for treatment of bone associated diseases” (THE NATIONAL INSTITUTE FOR BIOTECHNOLOGY IN THE NEGEV LTD., priority 2016, dated 2024)
